According to PMC4089488 (Acta Crystallographica Section D: Biological Crystallography, 2014):
Substitutions are numbered along the chain they refer to. Names and notes keep the numbering of the source.

T1: human MST1 SARAH domain (residues 432–480) (human) (UniProt Q13043)
T1 sequence: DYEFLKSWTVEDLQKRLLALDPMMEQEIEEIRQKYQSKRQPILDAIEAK

B1: human MST1 SARAH domain (residues 432–480) (domain or fragment, UniProt Q13043 432-480, looked up)
chain: T1 sequence
notes: mammalian sterile 20-like kinase 1 (MST1, KRS-2), human, 487 residues, SARAH domain residues 432-480; A selenomethionine-labelled form (E. coli B834 (DE3)) was used for SAD phasing; also called KRS-2; hMST1; source: E. coli BL21, GST fusion protein, purified as described previously (Hwang et al., 2007)
B2: RASSF5 SARAH domain double mutant (E388A and K398A) (domain or fragment)
chain: EVEWDAFSIPELQNFLTILEKEAQDKIQQVQKAYDKFRQKLEEALRESQGKPG
B3: human RASSF5 SARAH domain (residues 366–418) (domain or fragment, UniProt Q8WWW0 366-418, looked up)
chain: B2 chain with A23E, A33K
B4: human MST2 SARAH domain (residues 436–484) (domain or fragment, UniProt Q13188 436-484, looked up)
chain: DFDFLKNLSLEELQMRLKALDPMMEREIEELRQRYTAKRQPILDAMDAK
notes: mammalian sterile 20-like kinase 2 (MST2, KRS-1), human, 491 residues, SARAH domain residues 436-484; Forms a homodimer (one homodimer in the asymmetric unit); also called KRS-1; hMST2; source: E. coli BL21, GST fusion protein, purified as described previously (Hwang et al., 2010)

How the values were obtained:
[1] = target: the molecule itself; experiment: cell-based or functional assay
[2] = target: B3; experiment: crystal structure; MST1–RASSF5 SARAH heterodimer (domains mixed 1:2, heterodimer separated on Superdex 75 in 25 mM HEPES pH 7.0, 100 mM NaCl, 2 mM DTT); hanging drop, 20°C, 35% MPD, acetate pH 4.8; space group C222(1), one heterodimer in the asymmetric unit; SAD phasing with SeMet MST1; conditions: both partners purified
[3] = target: T1, human MST1 SARAH domain (residues 432–480) (human)
[4] = target: B1; experiment: cell-based or functional assay
[5] = target: the molecule itself; experiment: crystal structure; MST2 SARAH homodimer, 40 mg/ml; hanging drop, 20°C, 2.0 M NaCl, 8% PEG 6000; space group P4(1)2(1)2, one homodimer in the asymmetric unit; molecular replacement
[6] = target: B3; experiment: NMR titration; MST2 SARAH homodimer titrated with the RASSF5 SARAH domain in solution (Supplementary Fig. S7); conditions: both partners purified

B1
free energy of unfolding of the homodimer, urea-induced denaturation followed by CD, two-state fit [1]: 2 kcal/mol
binding result [2]: binds

B2
transition concentration (C m) of urea, urea-induced denaturation of the double-mutant SARAH heterodimer followed by CD at 222 nm [3]: 3.2 M

B3
free energy of unfolding of the heterodimer, urea-induced denaturation followed by CD, two-state fit [4]: 4.8 kcal/mol

B4
binding result [5]: binds
binding result [6]: binds
